The numbers were not newly measured in article PMC10606834, “Is the Neuropeptide PEN a Ligand of GPR83?” (International Journal of Molecular Sciences, 2023), which cites them from elsewhere.

For one data set, the system named is GPR83. From the text:
G protein-coupled receptor 83 (GPR83), also termed glucocorticoid-induced receptor (GIR), GPR72, KIAA1540, or JP05, is a class A G protein-coupled receptor with predominant expression in the […] and proposed function in the regulation of food intake and in anxiety-like behavior [1, 2, 3]. […] A potential role of GPR83 in regulatory T cell development and function has not been confirmed. […] The present study was initiated to evaluate PEN as a ligand of GPR83. […] While one end of the peptide may be crucial for binding the receptor, an absolute requirement of both peptide termini to be free of another ...

For data set [1], the system named is GPR83 (murine Att20 and STC-1 cells). The settings on record: pilot screen of peptide hormone library, ref [14]. From the text: While the earlier study employed CHO cells from Cricetulus griseus and Neuro2A cells from Mus musculus overexpressing human GPR83 [10], this study used human HEK293 and U2OS c ...

B1: FAM237A: 9 kDa protein, termed family with sequence similarity 237 member A (protein, UniProt A0A1B0GTK4 34-181, looked up)
Protein FAM237A: HSQTDLLALSQADPQCWESSSVLLLEMWKPRVSNTVSGFWDFMIYLKSSENLKHGALFWDLAQLFWDIYVDCVLSRNHGLGRRQLVGEEEKISAAQPQHTRSKQGTYSQLLRTSFLKKKELIEDLISMHVRRSGSSVIGKVNLEIKRK
For B1, the “GPR83 ligand and agonist” value with GPR83 (comparative evaluation, multiple assay systems, ref [16]) is “only FAM237A was confirmed as a GPR83 ligand and agonist”. Also, the “interaction with GPR83” value with GPR83 (multiple luminescence-based interaction and activation assays, ref [16]) is “confirmed the interaction of FAM237A”. Further, the “activation of GPR83” value in the data set with GPR83 (peptide hormone library screening study, ref [14]) is recorded as “activate GPR83”. Besides, the “GPR83-mediated β-arrestin recruitment” value in data set [1] is “activator of GPR83-mediated β-arrestin recruitment”.
